Measured values: US20240083984A1, “DOSING AND SCHEDULING REGIMEN FOR BROADLY NEUTRALIZING ANTIBODIES” (priority 2022, published 2024)

Tests used:
[1] = Phase 1b study GS-US-536-5816: safety (adverse events)
Excerpt: Participants were monitored clinically with plasma HIV-1 RNA every four weeks until the primary endpoint at Week 26. The primary endpoint was safety; secondary endpoints included virologic outcomes by FDA Snapshot analysis.

[2] = Phase 1b study GS-US-536-5816: pharmacokinetics of TAB, ZAB and LEN; settings: single dose; through Week 26
[3] = Population PK modeling and simulation of GS-5423 and GS-2872, flat vs weight-based dosing every 6 months; set-up: species or system human
Method: TAB and ZAB serum concentrations were measured using validated […]-electrochemiluminescence immunoassays. A two-compartment population PK model was developed to describe the PK data of GS-5423 and GS-2872 following IV and SC administration in HIV− and HIV+ participants. See, Joel S. Owen, Jill Fiedler-Kelly, “Introduction to Population Pharmacokinetic/Pharmacodynamic Analysis with Nonlinear Mixed Effects Models”, Wiley; 1st edition, 2014 (ISBN: 9780470582299). PopPK models of TAB and ZAB were developed using nonlinear mixed-effect modeling. Covariate analyses were performed to identify significant covariates, including body weight, effects of demographics, baseline characteristics, combination regimen, and disease status, on the PK parameters of GS-5423 and GS-2872. The population PK models were simulated to predict the PK profiles of GS-5423 and GS-2872 following IV administration of 30 or 10 mg/kg body weight normalized dosing or equivalent flat doses every 6 months. Model simulations were performed to predict the concentrations of TAB and ZAB following flat vs weight-based dosing.

[4] = in vivo, cited from earlier work
HIV = assay: PK-PD viral dynamic model and simulations of viral rebound during ATI; set-up: species or system human; settings: in vivo, PK-PD model
Method: Population PK and PK-PD models were developed using a nonlinear mixed-effect modeling approach based on serum bNAb concentration and/or viral dynamic data from 6 efficacy studies in people with HIV, and 3 PK studies of 3BNC117/TAB (GS-5423) and/or 10-1074/ZAB (GS-2872) (Table 4).
bNAb concentrations were measured by ELISA assays, except for study NCT03526848 (Gaebler, et al. Nature. 2022; 606:368-374). For this study, concentrations measured by TZM-bl assay (Sarzotti-Kelsoe, et al. J Immunol Methods. 2014; 409:131-146) were transformed to ELISA data using a log-linear correlation model calibrated based on data from study NCT02825797 (Mendoza, et al. Nature. 2018; 561:479-484; Bar-On Y, et al. Nat Med. 2018; 24:1701-1707) where PK was measured using both methods. The PK data of the bNAbs were modeled by 2-compartment linear PK models. Covariates (demographics, disease status, combination treatment) were tested using stepwise forward addition (α=0.01) and backward elimination (α=0.001) methods. The PK-PD model describes viral replication using a logistic growth function and viral elimination using first-order kinetics, with a nonlinear saturable (Emax) model to describe the relationship between bNAb concentrations and viral elimination rates. […]

Compound: CC(C)(C#Cc1ccc(-c2ccc(Cl)c3c(NS(C)(=O)=O)nn(CC(F)(F)F)c23)c([C@H](Cc2cc(F)cc(F)c2)NC(=O)Cn2nc(C(F)(F)F)c3c2C(F)(F)[C@@H]2C[C@H]32)n1)S(C)(=O)=O [lenacapavir]
- injection site reactions related to subcutaneous administration ([1]; 17/20 patients, LEN 927 mg SC): 85%
- participants with grade 3 AEs ([1]; injection site cellulitis and injection site erythema at site of LEN injection): Two participants
- therapeutic concentrations [2]: maintained through Week 26

Compound: zinlirvimab: anti-HIV gp120 V3 glycan-binding bNAb; 10-1074 with M428L and N434S (LS) Fc substitutions; heavy and light chains SEQ ID NOs: 433 and 434
- clearance in viremic PWH compared with those suppressed at baseline ([3]; PopPK covariate analysis): significant increase in the clearance
- effect of increased body weight on PK parameters ([3]; PopPK covariate analysis in PWH): increased volume of distribution and clearance
- non-solicited AEs within 4 weeks of IP administration ([4]; ip): 33.7%
- Grade 3 AE: decrease in hemoglobin [4]: 1%
- Grade 3 AE: elevated blood pressure [4]: 4%
- Grade 3 AE: increased left-sided weakness [4]: 1%
- Grade 3 AE: nephrolithiasis [4]: 1%
- Grade 3 AE: proteinuria [4]: 1%
- most common AE: localized musculoskeletal pain [4]: 8%
- most common AE: symptoms of gastroenteritis [4]: 8%
- most common AE: upper respiratory infections [4]: 25%
- non-solicited AEs of Grade 3 severity [4]: 9.3%
- non-solicited AEs of grade 2 severity [4]: 11.6%
- non-solicited AEs reported (number) [4]: 86
- solicited AE: erythema/skin discoloration at the administration site [4]: 8%
- solicited AE: feverishness [4]: 4%
- solicited AE: headache [4]: 4%
- solicited AE: induration at the administration site [4]: 2%
- solicited AE: malaise/fatigue [4]: 3%
- solicited AE: myalgia [4]: 1%
- solicited AE: pain at the administration site [4]: 4%
- solicited AEs reported (number) [4]: 20
- tolerability ([1]; up to 30 mg/kg alone or in combination, GS-US-536-5816 and previous studies in HIV+ participants): well-tolerated
- therapeutic concentrations [2]: maintained through Week 26
- estimated mean serum concentration corresponding to 50% maximum drug effect (EC50) (HIV): 32.2 µg/mL
